Experimental findings from CN114891097A (INST MICROBIOLOGY CAS, dated 2022) are described below.

This test concerns the target SARS-CoV-2 RBD-hFc蛋白 (SARS-CoV-2 RBD fused to a human Fc tag) (SARS-CoV-2; human).

B1: S43纳米抗体 (alpaca-derived nanobody S43, with C-terminal 6xHis tag) (VHH)
VHH: QVQLQESGGGLVQPGGSLRLTCAPSGFTLDYYAIGWFRQAPGKEREGVSCISSNNSTYYADSVKGRFTISRDNAKNTVYLQMNSLKPEDTAVYYCAAEPDYSGVYYYTCGWTDFGSWGQGTQVTVSS
By Kd is commonly meant the constant that tells how readily two partners part at equilibrium. Low values mean higher affinity, high ones lower affinity. The molecule B1 came in with a Kd of 0.12 nM.
